Among the data in PMC4172209 (2014) are Kd values, retold here.

Where no end group is shown, it is not given here. The star is where a group is joined. FITC = O=C1OC2(c3ccc(O)cc3Oc3cc(O)ccc32)c2ccc(NC(=S)*)cc21; βAla = NCCC(=O)O

The target of experiment [1] is NHERF1 PDZ1 (Homo sapiens) (UniProt O14745). The following applies: cited from earlier work.
Experiment [2] deals with T1, PTH1R C-terminal peptide (FITC-PTH1Rct) (Homo sapiens).
T1 chain: {FITC-βAla}-PERPPALLQEEWETVM
The experiment is described as follows: fluorescence polarization.

For the molecule “PTH1R C-terminal peptide C-terminus (from UniProt Q03431)”, the Kd in experiment [1] is 11 µM.

B1: NHERF1 PDZ1 1-140 (protein)
chain: MSADAAAGAPLPRLCCLEKGPNGYGFHLHGEKGKLGQYIRLVEPGSPAEKAGLLAGDRLVEVNGENVEKETHQQVVSRIRAALNAVRLLVVDPETDEQLQKLGVQVREELLRAQEAPGQAEPPAAAEVQGAGNENEPREA
B1 returned a Kd in experiment [2] of 19 µM.
